The series can be described thus: yeast display, Sf9 membrane polyspecificity reagent, FACS + sequencing; frameworks hold sequencing errors. In outline:
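Genes from sorted yeast were amplified by colony PCR, read by MiSeq 2 × 250 sequencing and filtered on CDR length. These cells carried a synthetic nanobody library in Saccharomyces cerevisiae BJ5465 and were sorted by FACS into low and high (top ~1%) gates on anti-HA and streptavidin fluorescence. Polyreactivity is labelled according to the gate of origin.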
Consider “QVQLVESGGGLVQAGGSLRLSCAASGITFVYYDMGWYRQAPGKERELLAAISSGGSTYYADSVKGRFTISRDNAKNTVYLQMNSLKPEDTAVYYCAAKISSNYHIGGDDYWGQGTQVSVSS”, for which the “polyreactivity (PSR sort gate)” value is listed as “high polyreactivity”.

With “QVQLVESGGGLVQAGGSLRLSCAASGRIFSIYAMGWYRQAPGKERDMVAASSFRGTSTYADSVKGRFTISRDNAKNTVYLQMNWLKPEDTAVYYCAVTGFDVLWPSLGGELDYWGQGTQVTVSS”, the “polyreactivity (PSR sort gate)” value is “low polyreactivity”.

Take “QVQLVESVGGLVQAGGSLRLSCPASGSIFKYNAMGWYRQSPGKERELVAAISSGGSTNYADSVKGRFTISRDNAKNTVYLQMNSLKPEDTAVYYCAKDRRRWYYTRDYWGQGTQVTVSS”: the “polyreactivity (PSR sort gate)” value is given as “low polyreactivity”.

On to “QVQLVESGGGLVQAGGSLRLSCAASGFTFSRYAMGWYRQAPGKEREFVAAISWSGGSTYYADSVKGRFTISRDNAKNTVYLQMNSLKPEDTAVYYCNAGSQLLASQTRYDYWGQGTQVTVSS”, for which the “polyreactivity (PSR sort gate)” value is “low polyreactivity”.

For the sequence “QVQLVESGGGLVQAGGSLRLSCAASGRISLGNAMGWYRQAPGKERELVAVITRGGRTSYADSVKGRFTISRDNAKNTVYLQMNSLKPEDTAVYYCAAESPVYHLVTYDYWGQGTQVTVSS”, the “polyreactivity (PSR sort gate)” value was “high polyreactivity”.

Turning to “QVQLVESGGGLVQAGGSLRLSCAASGSIFFSYAMGWYRQAPGKERELVAAITSSVDSTYYADSVKGRFTISRDNAKNTVYLQMNSLKPEDTAVYYCAARYRSGYYRYDYWGQGTQVTVSS”, the “polyreactivity (PSR sort gate)” value is on record as “low polyreactivity”.

As for “QVQLVESGGGLVQAGGSLRLSCAASGSISSKNAMGWYRQAPGKEREFVAVISGTGGSTYYADSVKGRFTISRDNAKNTVYLQMNSLKPEDTAVYYCAAAASSIVSYGYTWTYGYWGQGTQVTVSS”, the “polyreactivity (PSR sort gate)” value is recorded as “low polyreactivity”.

Regarding “QVQLVESGGGLVQAGGSLRLSCAASGSTFYNYALGWYRQAPGKERELVAAIRRSGGSTYYADSVKGRFTISRDNAKNTVYFQMNSLKPEDTAVYYCAASYYTRGYWGQGTQVTVSS”, the “polyreactivity (PSR sort gate)” value is “high polyreactivity”.

As to “QVQLVESVGGLVQAGGSLRLSCAASGFTFVDNAMGWYRQAPGKERELVAAISWTGVGSTYYADSVKGRFTISRDNAKNTVYLQMNSLKPEETAVYYCAADGLSRGVPDEFDYWGQGTQVTVSS”, the “polyreactivity (PSR sort gate)” value is “low polyreactivity”.

“QVQLVESGGGLVQAGGSLRLSGAASGRIFWYNAMGWYRQAPGKEREVVAGITSGGRTNYADSVKGRFTISRDNAKNTVYLQMNSLKPEDTAVYYCAATHSLRMYYLGQGTQVTVSS”: the “polyreactivity (PSR sort gate)” value is listed as “low polyreactivity”.

As to “PVQLVESGGGLVEAGGSLLLSCAASGSTFREYTMGWYRQAPGKERELVAAITNSGGSTYYADSVKGRFTISRDIAKYTVYLQMNSLKPDDTSVYYFAAEVGIVDYDYWGQGTKVTVSS”, the “polyreactivity (PSR sort gate)” value is recorded as “low polyreactivity”.

In the case of “HAQLQESGGGLVQAGGSLRRSCAASGSIFRFSGMGWYRRAPGKERELVASIGFGSITYYADRVKGRFTISRDHANNTVYLQMNSLKPEDTAVYYCAVQVQDESWLDYWGQGTQVTVSC”, the “polyreactivity (PSR sort gate)” value was “low polyreactivity”.

Regarding “QVQLQGSGGGLVQAGGSLRLSCAASGNIFDADIMAWYRQAPGKESELVASITDGGSTNYADSVKGRFTISRDNAKNTVYLQMNSLKQEDTAVYYCADIAYPDIPTYFDYDSDCFYWSQGTQVTVSS”, the “polyreactivity (PSR sort gate)” value was “high polyreactivity”.

With “QVQLVESGGGLVQAGGSLRLSCAASGISFITYVMGWYRQAPGKERELVAAISLRGGRTSYADSVKGRFTISRDNAKNTVYLQMNSLKPEDTAVYYCAARAYYTRYDYWGQGTQVTVSS”, the “polyreactivity (PSR sort gate)” value is “high polyreactivity”.

With “QVQLVESGGGLVQAGGSLRLSCAASGFIFSGNAMGWYRQAPGKERELVAAITWSDGSTYYADSVKGRFTISRDNAKNTVYFQINSLKPEDSAVYYCAVGALQITRYDSWGQGTQVTVSS”, the “polyreactivity (PSR sort gate)” value is given as “low polyreactivity”.

For “QVQLVESGGGFVQAGGSLRLSCAASGSTFSPNGMGWYRPAPGKERELVAAISSSTGSTNYADSVKGRFTISRDNAKNTVYLQMNSLKPEDTAVYYCAVDPYVHWTTKLYDYWGQGSQVTVSS”, the “polyreactivity (PSR sort gate)” value was “low polyreactivity”.

As to “QVQLVESGGGLVQAGGSLRLSCAASGFISAYYAMGWYRQAPGKEMELVAAISWNGGRTFYADSVKGRFTISRDNAKNTVYLQMNSLKPEDTAVYYCAARYNGYANPYYYWGQGTQVTVSS”, the “polyreactivity (PSR sort gate)” value was “high polyreactivity”.

On to “QVQLVESGGGLVQAGGSLRLSCAASGSIFTTYAMGWYRQAPGKERELVAVISRRGGSTYYADSVKGRFTISRDNAKNTVYLQMNSLKPEDTAVYYCNAAYVWYRIFVRRDYWGQGTQVTVSS”, for which the “polyreactivity (PSR sort gate)” value is recorded as “high polyreactivity”.

On to “QVQLVESGGGLVQAGGSLRLSCAASGRIFGHYAMGWYRQAPGKERELVASISSNGGSTYYADSVKGRFTISRDNAKNTVYLQINSLKPEDTAVYYCAARVSTVFKRYYYWGQGTQVTVSS”, for which the “polyreactivity (PSR sort gate)” value is given as “high polyreactivity”.

Turning to “QVQLVESGGGLVQAGGSLRLSCAASGSIFRQNAMGWYRQAPGKERELVAAISWSGVRTYYADSVKGRFTISRDNAKNTVYLQMNSLKPEDTAVYYCATRYTHVYYGRISSSPKFDSWGQGTQVTVSS”, the “polyreactivity (PSR sort gate)” value was “low polyreactivity”.

As to “QVQLVESGGGLVQAGGSLRLSCAASGSTVWFYAMGWYRQAPGKERELVAVISNSGSTYYADSVKGRFTISRDNAKNTVYLQMNSLKPEDTAVYYCNKDGGGDSYWYDYWGQGTQVTVSS”, the “polyreactivity (PSR sort gate)” value is “low polyreactivity”.

With “QVHLVESGGCLVQSGGSLRLSCAASGSTFPSYAKGWYRQAPGKERELVAAINSGGGTNYADSVKGRFTISRDNAKNTVYLQMNILKPEDTAVYYCAADVWKLYAYWGQGTQVTVSS”, the “polyreactivity (PSR sort gate)” value is recorded as “low polyreactivity”.

Consider “QVQLVESGGGLVQAGGSLRISCAASGSIFTRYAMGWYRQAPGKERELVAAIRTSGGSTYYADSVKARFTISRDNAKNTVYFQMNSLKPEDTAVYYCARRYYKSNFYYWGQGTLVTVSS”, for which the “polyreactivity (PSR sort gate)” value was “high polyreactivity”.

Take “QVQLVESGGGLVQAGGSLRLSCAASGGIFKRYAMGWYRQEPGKERELVAAISGRGGGTYYADSVKGRFTISRDNAKNTDYLQMNSLKPEDTAVYYCNARLSWSAFGYWGQGTQVTVSS”: the “polyreactivity (PSR sort gate)” value is “high polyreactivity”.

Regarding “QVQLVESGGGLVQAGGSLRFSCAASGLTFNHNAMGWYRQAPGKERELVAAISRRGGSTYYADSVKGRFTISRDNAKNTVYVQMNSLKPEDTAVYYCNKDFPTLYSRGRYIYWGQGTQVTVSS”, the “polyreactivity (PSR sort gate)” value is “high polyreactivity”.

For the sequence “QVQLVESGGGLVQAGGSLRLICAASGRIFRYYAMGWSRQAPGKERELVAAIRSASSTYYADSVNGRFTISRDNAKITVYLKMNSLIPEDTSVYYCADRLYGVYKRRYYYWGQGTQVTVSS”, the “polyreactivity (PSR sort gate)” value was “high polyreactivity”.

As for “QVQLVESGGGLVQAGGSLRLSCAASGIISIFIVMGGYRQAPGKERELVASITGRGGSTFYADSVKGRFTISRDNAKNTVYLQMNSLKPEDTAVYYCATDTGYTYPVTGLYDYWGQGTQVTVSS”, the “polyreactivity (PSR sort gate)” value is given as “low polyreactivity”.

Take “QVQLVESGGGLVQAGGSLRLSCAASGFTFYHYAMGWYRQAPGKERELVAAISRSGGSTYYADSVKGRFTISRDNAKNTVYLQMNSLKPEDTAVYYCSKVLRAKNSFDYWGQGTQVTVSS”: the “polyreactivity (PSR sort gate)” value is given as “high polyreactivity”.

With “QVQLVESGGGLVQAGGSLRLSSAASGYIFTPYAMGWYRQAPGKERELVAAISSSTVRTFYADSVKGRFTISRDNAKNTVYLQMNSLKPEDTAVYYCAARGYWGQGTQVTVSS”, the “polyreactivity (PSR sort gate)” value is listed as “high polyreactivity”.

Consider “QVQLVESGGGLVQAGGSLRLSCAASGRISQHNAMGWYRQAPGKERELVAAISWIGTSTYYADSVKGRFTISRDNAKNTVYLQMNSLKPEDTAVYYGWSTRGPPYIYLNYNYWGQGTQVTVSS”, for which the “polyreactivity (PSR sort gate)” value is recorded as “low polyreactivity”.

For the sequence “QVQLVESGGGLVQAGGSLRLSCAASGRTFTRYAMGRYRQAPGKERELVASISGSGGRTNYADSVKGRFTISRDNAKNTVYLQMNSLKPEDTAVYYCAARYRTWFGYWGQGTQVTVSS”, the “polyreactivity (PSR sort gate)” value is “high polyreactivity”.

“QVQLVESGGGLVQAGGSLRLSCAASGSTSSPNAMGRYRQAPGKEREFVAAISRSGGSTYYADSVKGRFTISRDNAKNTVYLQMNSLKPEETSVHYCAATVTVFYTRYYYWGQGTQVTVSS”: the “polyreactivity (PSR sort gate)” value is listed as “high polyreactivity”.

Regarding “QVQLVESGGGLVQAGGSLRLSCAASGINYDYYTMGWYRQAPGKERELVASINFSGGSTYYADSVKGRFTISRDNAKNTVYLQMNSLKPEDTAVYYCAAVSVSFWGGGRYYYWGQGTQVTVSS”, the “polyreactivity (PSR sort gate)” value is on record as “high polyreactivity”.

Take “QVQLVESGGGLVQAGGSLRLSCAASGRTFVRYAMGWSRQAPGKERELVAAITKSGGSTSYADSVKGRFTISRDNAKNTVYLQMNSLKPEDTAVYYCATRGYYQRSSPMDYWGQGTQVTVSS”: the “polyreactivity (PSR sort gate)” value is listed as “high polyreactivity”.

With “QGQLVESGGGLVQAGGSLRLTCAASGSNFVQNAMGWYRPAPGKERELVAVSNSGDSTNYADSVKGRFTISRDNAKNTVYLHMNSLKPEDNAVYYCAVDDVSYYYLRAYNYELSWYGSGLDYWGQGTQVTVSS”, the “polyreactivity (PSR sort gate)” value was “low polyreactivity”.

Consider “QVQLVESGGGLVQAGGSLRLSCAASGRTFRVYAMGWYRQAPGKEREFVAAITDSGGRTYYADSVKGRFTISRDNAKNTVYLQMNSLKPEDTAVYYCNAYQYYERYDTYLFRYDYWGQGTQVTVSS”, for which the “polyreactivity (PSR sort gate)” value was “low polyreactivity”.

Take “QVQLEESGGGLVQAGGSLRLSCAATGSIFYSYAMGSNRQAPGKEMELVATISTGGSTDYADSVKGRYTISRDNAKNTVYLQMNSLKPEETAVYYCATSGPYWWLVYWGQGTQVTVSS”: the “polyreactivity (PSR sort gate)” value is given as “low polyreactivity”.

On to “QVQLVESGGVLVQAGGSLRLSCAASGFTFAYYAMGWYRQAPGKVRELVASITRSGGSTYYADSVKGRFTLSRDNAKNTVYLQMNSLKPEDTAVYYCAARYGLVRDVIPYDYWGQGTQVTVSS”, for which the “polyreactivity (PSR sort gate)” value is on record as “high polyreactivity”.

On to “QVQLVESGGGLLQAGGSLRLSCAASGSIFGYYAMGWYRQAPGKERELVAAISRSGGSTYYADSVKGRFTISRDNAKNTVYLQMNSLKPEDTAVYYCAADDYPYGNYYWGQGTQVTVSS”, for which the “polyreactivity (PSR sort gate)” value is “high polyreactivity”.

With “QVQLVESGGGLVQAGGSLRLSCAASGYTLTINVMGWYRQAPGKERELVAAITSSGASTNYADSVKGRFTISRDNAKNTVYLQMNSLKPEDTAVYYCNVVNEHQSDFVVPFDYNHWGQGTQVTVSS”, the “polyreactivity (PSR sort gate)” value was “low polyreactivity”.

Consider “QVQLVESGGGLDQAGGSLRLSCAASGITFVRYAMGWYRQAPGKERELVAAISWSGGSTYYADSVKGRFTISRDNEKNTVYLQMNSLKPEDTAVYYCAAQHDVRYDYWGQGTQVTVSS”, for which the “polyreactivity (PSR sort gate)” value was “low polyreactivity”.

These data come from the nanobody polyreactivity screen of Harvey et al. (2022).
